# The nanobody polyreactivity screen of Harvey et al. (2022)
# Experiment: yeast display, Sf9 membrane polyspecificity reagent, FACS + sequencing; frameworks hold sequencing errors
# How it was run: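 Synthetic nanobody libraries on Saccharomyces cerevisiae BJ5465 were galactose-induced for 36–48 hours, stained 1 hour at 4 °C with 10% biotinylated, detergent-solubilized Sf9 membrane reagent and enriched on streptavidin microbeads. FACS then separated cells into low and high (top ~1%) gates by anti-HA (expression) and streptavidin (reagent binding) fluorescence. Genes were colony-PCR amplified, MiSeq 2 × 250 sequenced and CDR-length filtered. A clone's polyreactivity label is that of its gate of origin.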
row,Sequence,polyreactivity (PSR sort gate)
1,QVQLVESGLGLVQAGVSLRLSCAATGLTFVYYAMGWYRPAHGKERELVAAIDWSGGTTYYADSVKGRFTISRDHAKNTVYLQMNSLKPEDTAVYYCAADVVEEDDLEFYYWGQGTQVTVSS,high polyreactivity
2,QVQLVESGRGIVQAGGSLRLSCAASGRIFYLNAMGWYRQAPGKERELVAAITRSAASTHYADSVKGRFTISRDNAKNTVYVQMNSLKPEDTAVYYCAARFWYDYRHYDYWGQGTQVTVSS,low polyreactivity
3,QVQLVESGRGIVQAGGSLRLSCAASGRTFYVYTMGWYRQAPGKERELVAAITSGGSTNYADSVKGRFTISRDNAKNTLYLQMNSLKPEDTAVYYCAARVSTVFKRYYYWGQGTQVTVSS,high polyreactivity
4,QVQLVESGRGLDQAGGSLRISSAASGNTYKGHAMGWYRHAPGKERELVAAISWSTDSTYYADSVKGRFTISRDNAKNTVYLQMNSLKPEDTAIYYCAAYYSHLTIAWYYYWGQGTQVNVSS,low polyreactivity
5,QVQLVESGRGLFQAGGSLRLSCAASGIIFKSYAMGWYRQAPGKEREFVAAISWSGGRTTYADSLKGRFTISRDNAKNTVYLPMNSLKPEDTAVYYCAAAARGKFYYWGQGTQVTVSS,high polyreactivity
6,QVQLVESGRGLFQEGGSLRLSCAPSGFIFGKYAMGWYRQAPGTEREFVAAITRNGGSTYYADSVKGRVTISRDNAKNTVYLQMNSLKPDDTAVYYCNADRGYRRRTGMDDWGQVTQVTVSS,low polyreactivity
7,QVQLVESGRGLLQAGGSLRISCAASGFTFKGNAMGWYRQAPGKESELVAAITTSGGSTYYADSVKWRFTISRDNAKNTVYLQMNSLKPEDTAVYYCNAYFIYEGGWYYNAQYDYWGQGTQVTVSS,low polyreactivity
8,QVQLVESGRGLLQAGGSLRLSCASSGCIFTSYAMGWYRPAPGKVRELVAGITRGGRTYYADSVKGRFTISRDKAKNTVYLQSNSLKPEDTAVYYCAALSSRHFVFTVDYWGQATQVTVSS,high polyreactivity
9,QVQLVESGRGLVEAGGSLRLSCAASGSTFWAYVMGWSRQAPGKERELVAAITSSGGSTYYADSVKGRFTISRDYAKNTVYLQMNILKPEDTAVYYCAADYFYPYYGAMDYWGQGTQVTVSS,low polyreactivity
10,QVQLVESGRGLVQAGCSLRLSCASSGFIFVFNAMGRYRQAPGKERELVAAINGGDITNYAYSVKGRFTISRDNAKNTVYIQMNSLKPEDTAVYYCAADGEDSLWSGYDYDYWGLGTQVTVSS,low polyreactivity
11,QVQLVESGRGLVQAGCSLRLTCAASGSIFPQYAMGWYRQAPGQERELVAAITRSGGGTHYADSVKGRFTISRDNAKNTVYLQMNSLKPEDTAVYYCAKAGYRSEFEYWGQGTQVTVSS,low polyreactivity
12,QVQLVESGRGLVQAGGSLRLICDASGSTFFLYGMGWYRPAPGKERELVAAITWNGGSTYYADSVKGRFTISRDNAKNTVYLQMNSLKPEDTAVYYCAADYYGYFSTPYDYWGQGTQVTVSS,low polyreactivity
13,QVQLVESGRGLVQAGGSLRLSCAASGFTFGYYAMGWYRQAPGKERELVAAITSSGGTTYYADSVKGRFTISRDNAKNTVYLQMNSLKPEDTAVYYCAAEAQYYVVDPYGYDYWGQGTQVTVSS,low polyreactivity
14,QVQLVESGRGLVQAGGSLRLSCAASGIIFEYYTMGWSRPAPGKERELVASITYDGDSTYYADSVKGRFTISRDNAKNTVYLQMNSLKPEDTAVYYCAAEYYYVYSSFGHFYWGQGTQVTVSS,low polyreactivity
15,QVQLVESGRGLVQAGGSLRLSCAASGITFGWYAMGWYRQPPGKATELVASISSSGSTNYADSVKGRFTNSRDNAKNTVYLQMNSLKPEDTAVYYCNKDYLLRHYYIYVIEGDYWGQGTQVTVSS,low polyreactivity
16,QVQLVESGRGLVQAGGSLRLSCAASGRIFDRNAMGWYRDAPGKERELVAAIDDSVGDTSYADSVKGRFTISRDNAKNTVYLQMNSLKPEDTSVFYCNAGYADFVTYPRYYYWGQGTQVTVSS,low polyreactivity

row,Sequence,polyreactivity (PSR sort gate)
1,QVQLVESGRGLVQAGGSLRLSCAASGRIFFRYAMGWYRQAPGKAMELVAALPKSGGSTYADSVKGRFTISRDNAKTTVSLQMNSLKPEDTAVDDCATETTHYRDSGYIVKYRSEYWGQGTQVTVSS,low polyreactivity
2,QVQLVESGRGLVQAGGSLRLSCAASGRIFKAYAMGWYRQAPGKERELVAAISRSGGRTFYADSVKGRFTISRDNAKNTVYLQMNSLKPEDTAVYYCAVDVSPDSEYYYWGQGTQVTVSS,high polyreactivity
3,QVQLVESGRGLVQAGGSLRLSCAASGRIFKGYAMGWYRQAPGKERELVAAITTSGGGTYSADSVKGRFTFSRDNAKNTVYLQMNSLKPEDPAVYYCAKTLGSQNYDFDYWGQGTQVTVSS,low polyreactivity
4,QVQLVESGRGLVQAGGSLRLSCAASGRIFTTDVMGWDRQAPGKERELFAAISARGSTYYADYVKWRFTISRDNAKNTVYLHMNSLKPEDTAVYYFAKKGWSSHERAWYIYDYWGQGTQVTVSS,low polyreactivity
5,QVQLVESGRGLVQAGGSLRLSCAASGRTFDGYAMGWYRQAPGKERELVAAIDYDGVSTYYADSVKGRFTISRDNAKNTVYLPMHSLKPEDTAVYFCAVDATDDWWLDYWGQGTQVSVSS,low polyreactivity
6,QVQLVESGRGLVQAGGSLRLSCAASGRTLRIYAMGWYRQAPGKERELVAAITSSGRTNYADSVKGRFTISRDNAKNTVYLQMNSLKPEDTAVYYCAAVTPAVNYFRAASGYYYWGQGTQVTVSS,low polyreactivity
7,QVQLVESGRGLVQAGGSLRLSCAASGSIFDKYAMGWDRQAPGKEREMVAAISYSGGRTYYADSVKGRFTISRDNAKNTVYLQMNCLNPEDTAVYYCNAVGSVITDFGYWGQGTQVTVSS,low polyreactivity
8,QVQLVESGRGLVQAGGSLRLSCAASGSIFIANPMGWYRQAPGKQREFVADITLNGGSTYYADSVKGRFTISRDNAKNTVYLEMNRLNPEDTAVYYCAADWVWVAPQYWIVEYDYWGQGTQVTVSS,low polyreactivity
9,QVQLVESGRGLVQAGGSLRLSCAASGSIFRYNAMGWYRQAPGKERELVAAITRRGTSTYYADSVKGRFTISRDNAKNTVYLQKNSLKPEDTAVYYCAARYLYGVPVGGHGYWGQGTQVSVSS,high polyreactivity
10,QVQLVESGRGLVQAGGSLRLSCAASGSIFTPNVMGWYIQAPGKERELVAAISQSGGSTFYADSVKGRFTISRDNAKNTVYLQLNSLKPEDTAVYYCATEYDGPVYDLDYDYWGQGTLVTVSS,low polyreactivity
11,QVQLVESGRGLVQAGGSLRLSCAASGSTFDANAMGWYRQAPGKERELVAAISRSGGNTYYADSVKGRFTISRDNAKNTVYLQMNSLKPEDTAVYYCAADFRNAYYDRLDYWGQGTHVTVSS,low polyreactivity
12,QVQLVESGRGLVQAGGSLRLSCAASGSTFGGYAMGWYRQAPGKERELVAAISGSGVRTYYADSVKGRFTISRDNAKNTVYLQMNSLKPEDTAVYYCAKRVRYPGDRYYYWGQGTQVTLSS,high polyreactivity
13,QVQLVESGRGLVQAGGSLRLSCAASGSTFGRYVMGWYRQAPGKERELVAAISKNAGSTYYADSVKGRFTISRDNAKNTVYLQMNSLKPEDTAVYYCNRERRYRNDYWGQGTQVTVSS,high polyreactivity
14,QVQLVESGRGLVQAGGSLRLSCAASGSTFNRNAMGWYRQAPGKERELVAAITIRGGSTSYADSVKGRFTISRDNAKNTVYLQMNSLKPEDTAVYYCNRQSRNAGGYYWGQGTHVTVSS,low polyreactivity
15,QVQLVESGRGLVQAGGSLRLSCAASGSTFPPSAMGWYRQAPGKERELVAAIDVSGGTTFYADSVKGRFTISRDNAKNTVYLQMNSLKPEDTAVYYCAIGSVSARFEYWGQGTQVTVSS,low polyreactivity
